Measured values: patent publication US20220308072A1

Experiments:
[1] = target: Recombinant, his tagged full length human frataxin protein (Abcam ab95502) (human) (UniProt Q16595); assay: Simoa sandwich 3-step; capture Ab-2
[2] = target: Recombinant, his tagged full length human frataxin protein (Abcam ab95502) (human) (UniProt Q16595); assay: Simoa sandwich 3-step; capture Ab-2; remark: listed apart in the source
[3] = target: Recombinant, his tagged full length human frataxin protein (Abcam ab95502) (human) (UniProt Q16595); assay: Simoa sandwich 2-step; capture Ab-2
[4] = target: Recombinant, his tagged full length human frataxin protein (Abcam ab95502) (human) (UniProt Q16595); assay: Simoa sandwich 2-step; capture Ab-4; frataxin 100 pg/mL
[5] = target: Recombinant, his tagged full length human frataxin protein (Abcam ab95502) (human) (UniProt Q16595); assay: Simoa sandwich 3-step; capture Ab-1; frataxin 100 pg/mL
[6] = target: Recombinant, his tagged full length human frataxin protein (Abcam ab95502) (human) (UniProt Q16595); assay: Simoa sandwich 2-step; capture Ab-2; frataxin 167 pg/mL
[7] = target: Recombinant, his tagged full length human frataxin protein (Abcam ab95502) (human) (UniProt Q16595); assay: Simoa sandwich 2-step; capture Ab-1; frataxin 2.06 pg/mL
[8] = target: Recombinant, his tagged full length human frataxin protein (Abcam ab95502) (human) (UniProt Q16595); assay: Simoa sandwich 2-step; capture Ab-2; frataxin 18.5 pg/mL
[9] = target: Recombinant, his tagged full length human frataxin protein (Abcam ab95502) (human) (UniProt Q16595); assay: Simoa sandwich 2-step; capture Ab-2; frataxin 2.06 pg/mL
[10] = target: Recombinant, his tagged full length human frataxin protein (Abcam ab95502) (human) (UniProt Q16595); assay: Simoa sandwich 2-step; capture Ab-2; frataxin 55.6 pg/mL
[11] = target: Recombinant, his tagged full length human frataxin protein (Abcam ab95502) (human) (UniProt Q16595); assay: Simoa sandwich 3-step; capture Ab-3; frataxin 10000 pg/mL
[12] = target: Recombinant, his tagged full length human frataxin protein (Abcam ab95502) (human) (UniProt Q16595); assay: Simoa sandwich; capture Ab-1; no helper beads; frataxin 500 pg/mL
[13] = target: Recombinant, his tagged full length human frataxin protein (Abcam ab95502) (human) (UniProt Q16595); assay: Simoa sandwich 2-step; capture Ab-1; 50 pM SβG; frataxin 500 pg/mL
[14] = target: Recombinant, his tagged full length human frataxin protein (Abcam ab95502) (human) (UniProt Q16595); assay: Simoa sandwich; capture Ab-1; no helper beads; frataxin 2.06 pg/mL
[15] = target: Recombinant, his tagged full length human frataxin protein (Abcam ab95502) (human) (UniProt Q16595); assay: Simoa sandwich 2-step; capture Ab-1; 50 pM SβG; frataxin 6.17 pg/mL
[16] = target: Recombinant, his tagged full length human frataxin protein (Abcam ab95502) (human) (UniProt Q16595); assay: Simoa sandwich; capture Ab-1; no helper beads; frataxin 0.686 pg/mL
[17] = target: Recombinant, his tagged full length human frataxin protein (Abcam ab95502) (human) (UniProt Q16595); assay: Simoa sandwich 2-step (35 min-5 min); capture Ab-1; with helper beads
[18] = target: Recombinant, his tagged full length human frataxin protein (Abcam ab95502) (human) (UniProt Q16595); assay: Simoa sandwich 2-step (120 min-5 min); capture Ab-1; frataxin 222 pg/mL
[19] = target: Recombinant, his tagged full length human frataxin protein (Abcam ab95502) (human) (UniProt Q16595); assay: Simoa sandwich 2-step (120 min-5 min); capture Ab-1; frataxin 2000 pg/mL
[20] = target: Recombinant, his tagged full length human frataxin protein (Abcam ab95502) (human) (UniProt Q16595); assay: Simoa sandwich 2-step (35 min-5 min); capture Ab-1; with helper beads; frataxin 6.17 pg/mL
[21] = target: Recombinant, his tagged full length human frataxin protein (Abcam ab95502) (human) (UniProt Q16595); assay: Simoa sandwich 2-step (120 min-5 min); capture Ab-1; Diluent 1 + 5% NCS; frataxin 200 pg/mL
[22] = target: Recombinant, his tagged full length human frataxin protein (Abcam ab95502) (human) (UniProt Q16595); assay: Simoa sandwich 2-step (120 min-5 min); capture Ab-1; Diluent 1 + 5% NCS; frataxin 333 pg/mL
[23] = target: Recombinant, his tagged full length human frataxin protein (Abcam ab95502) (human) (UniProt Q16595); assay: Simoa sandwich 2-step (120 min-5 min); capture Ab-1; Diluent 1 + 5% NCS; frataxin 66.7 pg/mL
[24] = target: Recombinant, his tagged full length human frataxin protein (Abcam ab95502) (human) (UniProt Q16595); assay: Simoa sandwich 2-step (120 min-5 min); capture Ab-1; Diluent 1 + 10% NCS; frataxin 200 pg/mL
[25] = target: Recombinant, his tagged full length human frataxin protein (Abcam ab95502) (human) (UniProt Q16595); assay: Simoa sandwich 2-step (120 min-5 min); capture Ab-1; Diluent 1 + 5% NCS; frataxin 1000 pg/mL

UniProt Q16595, sequence (Q16595 42-210): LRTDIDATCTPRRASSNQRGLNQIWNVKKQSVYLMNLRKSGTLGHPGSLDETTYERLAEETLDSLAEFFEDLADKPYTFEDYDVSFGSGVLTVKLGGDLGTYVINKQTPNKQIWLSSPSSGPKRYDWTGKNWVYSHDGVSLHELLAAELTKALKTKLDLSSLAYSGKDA

Ab-3, mouse monoclonal [18A5DB1] to Frataxin (Abcam ab110328) (antibody)
LOD [1]: 1.33 pg/mL
LOD [2]: 0.65 pg/mL
LOD [3]: 0.23 pg/mL
Ave AEB [4]: 8.49 AEB
S/B [4]: 69.3
Ave AEB [5]: 2.5 AEB
S/B [5]: 42.3
Ave AEB [6]: 14.1 AEB
S/B [6]: 148
Ave AEB [7]: 0.318 AEB
S/B [7]: 3.06
Ave AEB [8]: 2.15 AEB
S/B [8]: 22.5
Ave AEB [9]: 0.318 AEB
S/B [9]: 3.33
Ave AEB [10]: 5.21 AEB
S/B [10]: 54.6
Ave AEB [11]: 1.06 AEB
S/B [11]: 224
AEB Rep1 [12]: 7.94 AEB
AEB Rep2 [12]: 5.08 AEB
Ave AEB [12]: 6.51 AEB
S/B [12]: 288
Ave AEB [13]: 13.7 AEB
S/B [13]: 747
AEB Rep1 [14]: 0.0405 AEB
AEB Rep2 [14]: 0.043 AEB
Ave AEB [14]: 0.0418 AEB
S/B [14]: 1.85
Ave AEB [15]: 0.194 AEB
S/B [15]: 10.6
AEB Rep1 [16]: 0.0328 AEB
AEB Rep2 [16]: 0.028 AEB
Ave AEB [16]: 0.0304 AEB
S/B [16]: 1.34
Estimated LLOQ [17]: 0.321 pg/mL
LOD [17]: 0.117 pg/mL
AEB rep1 [18]: 1.01 AEB
AEB rep2 [18]: 1.08 AEB
AEB rep3 [18]: 1.04 AEB
Ave AEB [18]: 1.04 AEB
S/B [18]: 127
AEB rep1 [19]: 9.8 AEB
AEB rep2 [19]: 10.1 AEB
AEB rep3 [19]: 9.8 AEB
Ave AEB [19]: 9.9 AEB
S/B [19]: 1200
AEB Rep1 [20]: 0.387 AEB
AEB Rep2 [20]: 0.399 AEB
Ave AEB [20]: 0.393 AEB
S/B [20]: 16.1
Ave AEB [21]: 4.24 AEB
S/B [21]: 235
Ave AEB [22]: 3.06 AEB
S/B [22]: 279
Ave AEB [23]: 1.27 AEB
S/B [23]: 70.5
Ave AEB [24]: 2.03 AEB
S/B [24]: 112
Ave AEB [25]: 8.95 AEB
S/B [25]: 815
